For 1 molecule, 效价 (antibody titer) results are on record in patent CN113683688A.

For the test, the target named is HIV-1 P24重组蛋白 (原核细胞大肠杆菌表达的HIV-1 P24全长蛋白) (HIV-1) (UniProt P04591). Description: indirect ELISA, serial two-fold dilution of the antibody.

B1: 抗HIV-1 P24兔单克隆抗体OTIR5D12 (antibody, V domains shown)
VH: QSLEESGGRLVTPGTPLTLTCTASGFSLNSYYMTWVRQAPGKGLEWIGILDTSGSTDYASWAKGRFTISKTSTTVDLKVTSPTAADTATYFCARGAYYSAYGDAWGQGTLVTVSS
VL: AQVLTQTPSPVSAVLGGTVTINCQSSQSVYNSNWLSWFQQKPGQPPKLLIYKASNLASGVPSRFKGSGSGTQFTLTISSVQCDDAATYYCQGGYNNGDGFGGGTEVVVK
In turn, B1 had a 效价 (antibody titer) of 6.6e+06.
